Experimental findings from patent US20250073269A1 (CAS LAMVAC GUANGZHOU BIOMEDICAL TECHNOLOGY, published 2025) are described below.

For test [1], the target named is T1, catenated VAR2CSA recombinant protein AXVB (Plasmodium, isopeptide bond between SpyTag and SpyCatcher (intra- or intermolecular coupling, cyclization and catenation)).
T1 construct: also called AXVB protein; AXVB navigator protein
Briefly: ELISA, AXVB coated, 5H4 mAb titrated; single experiment of three (FIG. 10). On the technique in general: An ELISA detects its analyte on a solid surface through an enzyme-linked reagent.
Method: (§1) (1) Antigen coating: The AXVB and rVAR2 proteins were diluted to a final concentration of 20 nM with the Na₂CO₃—NaHCO₃ carbonate coating buffer (with a pH of 9.6) which was filtered and sterilized by the 0.22 μm filter membrane, respectively, 100 μL of each protein sample was added to a 96-well Elisa plate (JET BIOFIL, Guangzhou, China, Cat. #FEP101896), with three replicates per protein sample, and the Elisa plate was covered with a sealing film and incubated at 4° C. overnight. […] (2) Antigen blocking: The coating solution in the Elisa plate was removed, the Elisa plate was washed with a PBST solution (1×PBS+0.05% v/v polyoxyethylene sorbitan fatty acid ester, with a pH of 7.2-7.4) three times, the liquid was patted dry, 200 μL of PBST solution containing 5% BSA was added, and the Elisa plate was then incubated at room temperature for 2 hours. […] (3) Primary antibody incubation: The antigen blocking solution was removed, the Elisa plate was washed with the PBST solution three times, and 100 μL of 5H4 mAb at different concentrations which was diluted with an antibody dilution solution (1×PBS containing 0.1% BSA) in different ratios was added to each well.

The target of test [2] is T2, wild-type VAR2CSA recombinant protein (rVAR2) (Plasmodium).
T2 construct: Monomer of about 73.1 kDa including the tag, with no intra- or intermolecular coupling; Prepared as in CN110325551B; also called rVAR2 protein; monomeric VAR2CSA recombinant protein
T2 chain: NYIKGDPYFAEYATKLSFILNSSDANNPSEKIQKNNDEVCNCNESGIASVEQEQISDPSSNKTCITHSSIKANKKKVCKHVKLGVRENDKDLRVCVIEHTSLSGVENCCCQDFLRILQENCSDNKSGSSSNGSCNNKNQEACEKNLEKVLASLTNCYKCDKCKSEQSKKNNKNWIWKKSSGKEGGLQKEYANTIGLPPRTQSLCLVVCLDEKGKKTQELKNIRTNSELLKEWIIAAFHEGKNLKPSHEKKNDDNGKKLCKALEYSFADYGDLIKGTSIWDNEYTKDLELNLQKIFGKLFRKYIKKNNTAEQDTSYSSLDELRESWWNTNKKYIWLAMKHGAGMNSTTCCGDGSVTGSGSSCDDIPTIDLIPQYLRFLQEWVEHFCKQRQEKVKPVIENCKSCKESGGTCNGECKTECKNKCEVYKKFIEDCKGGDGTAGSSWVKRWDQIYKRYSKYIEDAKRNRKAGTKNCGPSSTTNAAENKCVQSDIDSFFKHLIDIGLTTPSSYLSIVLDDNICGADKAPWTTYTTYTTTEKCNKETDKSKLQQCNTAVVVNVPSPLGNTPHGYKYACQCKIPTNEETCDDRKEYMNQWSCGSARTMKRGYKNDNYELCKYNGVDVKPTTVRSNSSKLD
Nature of the test: ELISA, rVAR2 coated at 20 nM, 5H4 mAb titrated, non-linear regression; mean of three experiments.

For test [3], the target named is T2, wild-type VAR2CSA recombinant protein …. Nature of the test: ELISA, rVAR2 coated, 5H4 mAb titrated; single experiment of three (FIG. 11).
Method: as §1
In test [4] the target is T1, catenated VAR2CSA recombinant protein …. Briefly: ELISA, AXVB coated, 5H4 mAb titrated; single experiment of three.
Method: as §1
The target is the same in test [5]. Nature of the test: ELISA, AXVB coated at 20 nM, 5H4 mAb titrated, non-linear regression; mean of three experiments.
Test [6] has as its target T2, wild-type VAR2CSA recombinant protein …. Briefly: ELISA, rVAR2 coated, 5H4 mAb titrated; single experiment of three.
Method: as §1

“And” between values parts separate entries of the source, which are not always exact repeats. Identical values can stand only once.

B1: monoclonal antibody 5H4 (5H4 mAb) (antibody, V domains shown)
VH: EVKLVESGGGLVKPGGSLKLSCAASGFTFSNYAMSWVRQSPERRLEWVAEISITGRYTYYPDTVTGRFTISRDNAKNTLYLEMSSLRSEDTAMYYCTREGYDYAPSWFAYWGQGTLVTVSA
VL: DVVMTQTPLSLPVSLGDQASISCRSGQTLVHRNGITYLEWYLQKPGQSPKLLIYKVSNRFSGVPDRFSGSGSGTDFTLKISRVEAEDLGIYYCFQGSHVPRTFGGGTKLEIK
notes: Mouse monoclonal antibody, detected with anti-mouse IgG; also called mouse anti-rVAR2 protein monoclonal antibody 5H4 mAb
Take B1: the Kd – broadly, the concentration at which binding is half-saturated – in test [1] was 77.8 nM; in test [2], 144 nM; in test [3], 136 nM; in test [4], 73 nM and 100 nM; in test [5], 83.7 nM; in test [6], 123 nM and 174 nM.
